Reference: US20260035447A1 (SCHOLAR ROCK, published 2026)

Biological target: T1, proGDF11 (Mus musculus, UniProt Q9Z1W4)
T1 construct: The text calls it recombinant mouse GDF11 / rGDF11, and the sheet labels it '10x proGDF11'; also called recombinant mouse GDF11; rGDF11 (murine)
T1 sequence (proprotein, looked up): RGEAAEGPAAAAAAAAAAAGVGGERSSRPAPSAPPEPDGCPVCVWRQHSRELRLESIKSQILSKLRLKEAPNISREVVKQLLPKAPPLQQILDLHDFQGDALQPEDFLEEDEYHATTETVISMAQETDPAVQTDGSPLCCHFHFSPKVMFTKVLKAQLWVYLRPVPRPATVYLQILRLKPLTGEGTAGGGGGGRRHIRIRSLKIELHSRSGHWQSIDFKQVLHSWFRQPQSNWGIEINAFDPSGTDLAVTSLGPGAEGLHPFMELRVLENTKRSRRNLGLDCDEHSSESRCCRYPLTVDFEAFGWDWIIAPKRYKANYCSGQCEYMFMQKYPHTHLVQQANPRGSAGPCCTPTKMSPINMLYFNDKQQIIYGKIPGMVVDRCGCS
Test: recombinant protein absorption: Ab10 at 50 µg/mL pre-incubated overnight with 10-fold molar excess of recombinant mouse GDF11, then used as primary antibody for immunofluorescence on mouse tibialis anterior sections; read-out is retained tissue pro/latent GDF8 staining
Procedure: Tibialis anterior (TA) muscles were fixed in ice cold 4% paraformaldehyde (EMS), PBS for 30 min, incubated overnight in 10% sucrose, PBS at 4° C., then incubated overnight in 20% sucrose, PBS. Muscles were then mounted on cork with tragacanth (Sigma) and frozen in liquid nitrogen cooled isopentane (Sigma) for cryosectioning. 10 μm sections of TA muscle were permeabilized with 0.1% Triton-X 100 (Sigma), PBS for 20 minutes, washed once with 0.05% Triton-X 100, PBS (PBS/T), and then incubated in Mouse IgG blocking reagent (Vector Lab) diluted at 1 drop per 1.5 mL PBS/T for 1 h. Sections were washed once with PBS/T and then incubated in 10% Normal Goat Serum (Sigma), 1% Blocking powder (Perkin Elmer), PBS/T (NGB) for 30 minutes at room temperature. Primary antibodies (Rabbit anti-laminin, 1:5000, Abcam; Ab10, […]; HuNeg, 50 μg/mL,) were diluted in NGB and applied to sections overnight at 4° C. Sections were washed 3 times with PBS/T, and then incubated in secondary antibodies (Alexa Fluor 488 conjugated Goat anti-Rabbit, 1:1000, Invitrogen; Alexa Fluor 594 conjugated Goat anti-Human IgG FCY, 1:500, Jackson ImmunoResearch) diluted in NGB for 1 h. Sections were then incubated in 350 nM DAPI (Thermo), PBS/T for 5 minutes, washed twice with PBS/T, and then mounted with Vectashield (Vector Laboratories). […]

binding result: no binding
B1: anti-pro/latent GDF8 antibody, Ab10 (antibody, V domains shown)
VH: EVQLVQSGGGVVQSGRSLRLSCVASGFSFSNYGMHWVRQAPGKGLEWLAFIWYDGSNKWYADSVKGRFTISRDNSKNALYLQMNSLRAEDTAVYYCARDRYSSSWGGGFDYWGQGTVLTVSS
VL: NFMLTQPHSVSESPGRTVTIPCSGRGGSIASDSVQWYQQRPGSAPTTIIYEDNQRPSGVPDRFSGSVDSSSNSASLTISGLRTEDEADYYCQSYDASSLWVFGGKTKLTVLG
notes: The VL as printed runs into the start of the lambda constant region
